In PMC11594316, “Novel DNA Aptamers to Dickkopf-1 Protein and Their Application in Colorimetric Sandwich Assays for Target Detection in Patients with Axial Spondyloarthritis”:

T1: Dickkopf-1 (DKK-1) (human, UniProt O94907 32-266)
T1 sequence: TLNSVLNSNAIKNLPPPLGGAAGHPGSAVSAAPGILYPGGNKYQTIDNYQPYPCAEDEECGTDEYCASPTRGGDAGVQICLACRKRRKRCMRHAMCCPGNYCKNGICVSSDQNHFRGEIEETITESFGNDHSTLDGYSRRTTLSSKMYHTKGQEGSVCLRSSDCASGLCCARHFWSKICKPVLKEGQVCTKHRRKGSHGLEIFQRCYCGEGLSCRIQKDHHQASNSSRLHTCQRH


Target: T1, Dickkopf-1 (DKK-1)
Assay: ELASA; ELASA: DKK-1 coated at 2 ug/mL, BSA-blocked; aptamer 3.12-100 nM in PBSMT (1x PBS pH 7.4, 5 mM MgCl2, 0.05% Tween 20), 1 h, 25 C
Conditions: protein: commercial, tags: N-terminal His-tag (stated for the selection protein), label: biotin

Binder	Kd (three-way junction) [nM]	Kd (stem-loop) [nM]
CCTCGGAGTGCGTACAGCAAGCACATATGTGCTCTCCCAGG (ssDNA, 3'-amino linker (C6, Spacer 18)) [DK4_41t]	5.6 ± 3	
CACGACTCGGAGTGCGTACAGCAAGCACATATGTGCTCTCCCAGAGCGTG (ssDNA, 3'-amino linker (C6, Spacer 18)) [DK4_50t]	6.1 ± 2	
CGGTGTACCCGCATAGACCCTGCGTCCGCTGTATGTACACGTAAGCCG (ssDNA, 3'-amino linker (C6, Spacer 18)) [DK2_48t]	3.3 ± 2	
CGGCATGTATCTGGCTGCTGAGTGTACGATTCCAGTATATATGAGCCG (ssDNA, 3'-amino linker (C6, Spacer 18)) [DK1_48t]		10 ± 6
DK2_58t (ssDNA, 3'-amino linker (C6, Spacer 18)) DNA: CGACTCGGTGTACCCGCATAGACCCTGCGTCCGCTGTATGTACACGTAAGCCCTGTCG	3.6 ± 2	
